From article PMC11287377, “tRNA ^Arg binds in vitro TDP-43 RNA recognition motifs and ligand of Ate1 protein LIAT1” (microPublication Biology, 2024) come the findings set out here.

In general, stoichiometry N refers to the number of molecules, sites or subunits per partner or assembly.

The chains are these.
B1: human TDP-43 NTD (residues 1-85) (domain or fragment, UniProt Q13148 1-85, looked up)
chain: MSEYIRVTEDENDEPIEIPSEDDGTVLLSTVTAQFPGACGLRYRNPVSQCMRGVRLVEGILHAPDAGWGNLVYVVNYPKDNKRKM
notes: Tags removed with TEV protease; also called hTDP-43 NTD; source: E. coli BL21 KRX, purified (NiNTA, TEV digestion, SEC)
B2: human TDP-43 NTD-ΔNLS-RRM1-RRM2 (residues 1-85 and 101-266) (domain or fragment, UniProt Q13148 1-85, looked up)
chain: MSEYIRVTEDENDEPIEIPSEDDGTVLLSTVTAQFPGACGLRYRNPVSQCMRGVRLVEGILHAPDAGWGNLVYVVNYPKDNKRKMQKTSDLIVLGLPWKTTEQDLKEYFSTFGEVLMVQVKKDLKTGHSKGFGFVRFTEYETQVKVMSQRHMIDGRWCDCKLPNSKQSQDEPLRSRKVFVGRCTEDMTEDELREFFSQYGDVMDVFIPKPFRAFAFVTFADDQIAQSLCGEDLIIKGISVHISNAEPKHNS
notes: Internal deletion of the NLS linker (residues 86-100); no replacing linker is mentioned; Tags removed with TEV protease; also called hTDP-43 NTD-ΔNLS-RRM1-RRM2; source: E. coli BL21 KRX, purified (NiNTA, TEV digestion, SEC)
B3: recombinant mouse LIAT1 (ligand of Ate1 protein), full length (natural protein, UniProt Q810M6 1-228, looked up)
chain: MAGRGGTGAAEYGEEGEEEEEEEAREGGAEGSPGSKLPPIVGTASELAKRKVKKKKKKKKTKGSGKGDADKHHSRGRKNQPLSSSFHDILNPHKDHGLRAEPRDKEENRQTLPYSYSINHPCFAEIEDTLSSQINESLRWDGILTDPEAEKERIRIYKLNRRKRYRLMALKCFHSDPCVEESVENLPYLSDKDCSPCSKQPSSKGDHAHSYFEASKLLHPELATTVAE
notes: LIAT1 (ligand of Ate1), Mus musculus, full length, theoretical molecular weight ~24 kDa; Tags removed with TEV protease; also called mLIAT1; source: E. coli BL21 KRX, purified (NiNTA, TEV digestion, SEC)
B4: human TDP-43 NLS-RRM1-RRM2 (residues 85-266) (domain or fragment, UniProt Q13148 85-266, looked up)
chain: MDETDASSAVKVKRAVQKTSDLIVLGLPWKTTEQDLKEYFSTFGEVLMVQVKKDLKTGHSKGFGFVRFTEYETQVKVMSQRHMIDGRWCDCKLPNSKQSQDEPLRSRKVFVGRCTEDMTEDELREFFSQYGDVMDVFIPKPFRAFAFVTFADDQIAQSLCGEDLIIKGISVHISNAEPKHNS
notes: Tags removed with TEV protease; also called hTDP-43 NLS-RRM1-RRM2; source: E. coli BL21 KRX, purified (NiNTA, TEV digestion, SEC)

This data set deals with the molecule itself. The data set can be described thus: SEC; 500 uL of tagless purified protein on Superdex 75 10/30 in SEC buffer (150 mM KCl, 20 mM NaCl, 1 mM MgCl2, 5% glycerol, 50 mM HEPES pH 7.7), 0.5 mL/min; size from a calibration curve of standard proteins. (In general: SEC sorts molecules by how far they enter the pores of the column.)
Take B1: the “stoichiometry N” value amounted to 2.
B2: the “stoichiometry N” value is 2.
The same measure for B3: 2; for B4: 2.
